Drawing on the supplement of paper PMC10567573, this text covers protein stability index for 94 variants.

To fix the notation:
B1: ADAMTS4 (parent)
chain: SFRKFRYGYNNVVTIPAGATHILV
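Further: lentivirally expressed fusions sorted by FACS into six bins by GFP to DsRed ratio, PSI derived from sequencing read proportions per bin multiplied by bin number.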

In this data set the parent is B1. As to the kind of experiment: protein stability index of a GFP-peptide fusion (GPS, HEK-293T) (PSI 1-6); higher = more stable. To be noted: c terminus: a fixed tail appended.
Consider SFRKFRYGYNNVVTIPAGWTHILV, for which the protein stability index is 2.72. For SFRKFRYGYNNVVTIPAGRTHILV, the protein stability index amounted to 2.67. SFRKFRYGYNNVVTIPAGTTHILV: the protein stability index was 1.36. As for SFRKFRYGYNNVVTIPAGVTHILV, the figure is 1.84; as for SFRKFRYGYNNVVTIPAGYTHILV, 3.44; as for SFRKFRYGYNNVVTIPAGATTILV, 3.43.

In the case of SFRKFRYGYNNVVTIPAGATMILV, the protein stability index stood at 2.12. On to SFRKFRYGYNNVVTIPAGATRILV, for which the protein stability index is 2.32. The figure for SFRKFRYGYNNVVTIPAGATGILV is 2.48; for SFRKFRYGYNNVVTIPAGATFILV it is 3.18. The figure for SFRKFRYGYNNVVTIPAGATNILV is 2.65; for SFRKFRYGYNNVVTIPAGATAILV it is 1.3. The figure for SFRKFRYGYNNVVTIPAGATDILV is 1.66. As to SFRKFRYGYNNVVTIPAGATQILV, the protein stability index was 2.85.

Regarding SFRKFRYGYNNVVTIPAGATSILV, the protein stability index was 2.3. Consider SFRKFRYGYNNVVTIPAGATPILV, for which the protein stability index came to 1.28. The figure for SFRKFRYGYNNVVTIPAGATKILV is 2.59; for SFRKFRYGYNNVVTIPAGATVILV it is 2.02; for SFRKFRYGYNNVVTIPAGATCILV it is 2.43. The figure for SFRKFRYGYNNVVTIPAGATYILV is 3.3. With SFRKFRYGYNNVVTIPAGATIILV, the protein stability index was 2.4. The figure for SFRKFRYGYNNVVTIPAGATEILV is 3.28; for SFRKFRYGYNNVVTIPAGATHIYV it is 2.41. The figure for SFRKFRYGYNNVVTIPAGATHIIV is 3.28.

On to SFRKFRYGYNNVVTIPAGATHINV, for which the protein stability index stood at 1.75. The figure for SFRKFRYGYNNVVTIPAGATHIPV is 2.29. The figure for SFRKFRYGYNNVVTIPAGATHIAV is 2.4. With SFRKFRYGYNNVVTIPAGATHIDV, the protein stability index amounted to 1.78. Regarding SFRKFRYGYNNVVTIPAGATHISV, the protein stability index worked out at 2.52. As for SFRKFRYGYNNVVTIPAGATHIGV, the figure is 2.1; as for SFRKFRYGYNNVVTIPAGATHIQV, 1.37. In the case of SFRKFRYGYNNVVTIPAGATHITV, the protein stability index came out at 3.08. As for SFRKFRYGYNNVVTIPAGATHIRV, the figure is 1.84; as for SFRKFRYGYNNVVTIPAGATHIWV, 2.15. The figure for SFRKFRYGYNNVVTIPAGATHICV is 2.19. The figure for SFRKFRYGYNNVVTIPAGATHIHV is 2.91; for SFRKFRYGYNNVVTIPAGATHIFV it is 2.76. In the case of SFRKFRYGYNNVVTIPAGATHIKV, the protein stability index amounted to 2. The figure for SFRKFRYGYNNVVTIPAGATHIEV is 1.32.

For SFRKFRYGYNNVVTIPAGATHIVV, the protein stability index was 2. SFRKFRYGYNNVVTIPAGATHIMV: the protein stability index stood at 2.43. The figure for SFRKFRYGYNNVVTIPAGATHILK is 1.7; for SFRKFRYGYNNVVTIPAGATHILP it is 1.64; for SFRKFRYGYNNVVTIPAGATHILR it is 1.34. On to SFRKFRYGYNNVVTIPAGATHILH, for which the protein stability index worked out at 1.73.

On to SFRKFRYGYNNVVTIPAGATHILT, for which the protein stability index is 1.44.

With SFRKFRYGYNNVVTIPAGATHILQ, the protein stability index was determined as 1.75. As for SFRKFRYGYNNVVTIPAGATHILE, the figure is 2.34; as for SFRKFRYGYNNVVTIPAGATHILM, 2.12. Take SFRKFRYGYNNVVTIPAGATHILA: the protein stability index worked out at 1.52. As for SFRKFRYGYNNVVTIPAGATHILN, the figure is 1.66. The figure for SFRKFRYGYNNVVTIPAGATHILI is 2. Consider SFRKFRYGYNNVVTIPAGATHILL, for which the protein stability index is 2.35. As for SFRKFRYGYNNVVTIPAGATHILS, the figure is 1.68; as for SFRKFRYGYNNVVTIPAGATHILF, 3.25. As for SFRKFRYGYNNVVTIPAGATHILC, the figure is 2.39; as for SFRKFRYGYNNVVTIPAGATHILG, 1.81. The figure for SFRKFRYGYNNVVTIPAGATHILD is 1.93; for SFRKFRYGYNNVVTIPAGANHILV it is 1.85.

On to SFRKFRYGYNNVVTIPAGAHHILV, for which the protein stability index was 1.63.

On to SFRKFRYGYNNVVTIPAGACHILV, for which the protein stability index amounted to 2.86. As for SFRKFRYGYNNVVTIPAGAPHILV, the figure is 3.21; as for SFRKFRYGYNNVVTIPAGAAHILV, 2.32; as for SFRKFRYGYNNVVTIPAGAMHILV, 2.51.

Take SFRKFRYGYNNVVTIPAGAGHILV: the protein stability index amounted to 1.49. The figure for SFRKFRYGYNNVVTIPAGAIHILV is 2.77; for SFRKFRYGYNNVVTIPAGALHILV it is 2.9; for SFRKFRYGYNNVVTIPAGAYHILV it is 1.69. As for SFRKFRYGYNNVVTIPAGAQHILV, the figure is 2.19. As for SFRKFRYGYNNVVTIPAGAVHILV, the figure is 2.55. For the variant SFRKFRYGYNNVVTIPAGAEHILV, the protein stability index stood at 2.56. The figure for SFRKFRYGYNNVVTIPAGAWHILV is 2.38; for SFRKFRYGYNNVVTIPAGAKHILV it is 2.24; for SFRKFRYGYNNVVTIPAGAFHILV it is 3.2. Turning to SFRKFRYGYNNVVTIPAGADHILV, the protein stability index worked out at 1.54.

SFRKFRYGYNNVVTIPAGATHCLV: the protein stability index was found to be 2.42.

As for SFRKFRYGYNNVVTIPAGATHSLV, the protein stability index was found to be 2.36. As for SFRKFRYGYNNVVTIPAGATHYLV, the figure is 1.92. The figure for SFRKFRYGYNNVVTIPAGATHQLV is 2.31; for SFRKFRYGYNNVVTIPAGATHELV it is 2.53; for SFRKFRYGYNNVVTIPAGATHPLV it is 2.59. The figure for SFRKFRYGYNNVVTIPAGATHALV is 1.74; for SFRKFRYGYNNVVTIPAGATHRLV it is 1.88; for SFRKFRYGYNNVVTIPAGATHGLV it is 1.93. For the variant SFRKFRYGYNNVVTIPAGATHWLV, the protein stability index was found to be 1.83. As for SFRKFRYGYNNVVTIPAGATHDLV, the figure is 2.24; as for SFRKFRYGYNNVVTIPAGATHLLV, 2.51. The figure for SFRKFRYGYNNVVTIPAGATHKLV is 2.37; for SFRKFRYGYNNVVTIPAGATHNLV it is 1.83. As for SFRKFRYGYNNVVTIPAGATHTLV, the figure is 1.97; as for SFRKFRYGYNNVVTIPAGATHVLV, 1.79; as for SFRKFRYGYNNVVTIPAGATHHLV, 1.8. For SFRKFRYGYNNVVTIPAGATHFLV, the protein stability index was 2.58. On to SFRKFRYGYNNVVTIPAGATHMLV, for which the protein stability index was 1.9.
